The source of these data is patent US20260125454A1 (SHANGHAI JUNSHI BIOSCIENCES, published 2026).

The target in the test is T1, Biotin-huCGRPaSA (human, not fully specified; biotin (position not given)).
T1 construct: exact construct ('aSA') not explained; also called Biotin CGRPaSA; full-length (1-37) CGRP
T1 peptide: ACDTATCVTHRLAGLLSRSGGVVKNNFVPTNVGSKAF
As to the kind of experiment: ELISA, supernatant; relative to chimeric C245. In short, it runs like this: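 Antibodies, including reference chimeric C245, titrated 2.5-fold from 1000 ng/mL and incubated 60 min at 37°C on wells coated with 1.0 μg/mL biotin-CGRPaSA and blocked with 2% BSA. Bound IgG detected with HRP anti-human Fc antibody and TMB, acid-stopped, absorbance 450/620 nm.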

B1: hu56 (antibody, V domains shown)
VH: QVQLVQSGAEVKKPGASVKVSCKASGYTFTDFNMHWVRQAPGQGLEWMGYIYPYNGDVVYNQNFTNRVTLTVDTSSSTAYMELRSLRSDDTAVYYCAREGLGGYWGQGTLVTVSS
VL: DIQLTQSPSFLSASVGDRVTITCKASQNIDYDGYAYLNWYQQKPGKAPKVLIYSVFNLESGVPSRFSGSGSGTEFTLTISSLQPEDFATYYCQQSNEFPYTFGQGTKLEIK
notes: 1F5 HC-3/1A2 LC2-4
As to B1, the “Relative binding activity, %” value worked out at 53%.

B2: hu95 (antibody, V domains shown)
VH: QVQLVQSGAEVKKPGASVKVSCKASGYTFTDYNMHWVRQAPGQRLEWMGYVYPYNGGSAYNQKFKSRVTLTVDTSSSTAYMELSSLRSEDTAVYYCAREGLGGYWGQGTLVTVSS
VL: DIQLTQSPSFLSASVGDRVTITCKASQNIDYDGYAYLNWYQQKPGKAPKVLIYSVFNLESGVPSRFSGSGSGTEFTLTISSLQPEDFATYYCQQSNEFPYTFGQGTKLEIK
notes: 2A2 HC-1/1A2 LC2-4
Take B2: the “Relative binding activity, %” value came out at 43%.

B3: hu65 (antibody, V domains shown)
VH: QVQLVQSGAEVKKPGASVKVSCKASGYTFTDFNMHWVRQAPGQGLEWMGYIYPYNGDVVYNQNFTNRVTLTVDTSSSTAYMELRSLRSDDTAVYYCAREGLGGYWGQGTLVTVSS
VL: DIQLTQSPSSLSASVGDRVTITCKASQNIDYGGYSYMNWYQQKPGKAPKVLIYSVFNLESGVPSRFSGSGSGTDFTLTISSLQPEDFATYYCQQSNEAPYTFGQGTKLEIK
notes: 1F5 HC-3/3H10 LC2-2
As for B3, the “Relative binding activity, %” value was 20%.

B4: hu108 (antibody, V domains shown)
VH: QVQLVQSGAEVKKPGASVKVSCKASGYTFTDYNMHWVRQAPGQGLEWMGNIYPYNGGTVYNQKFNNRVTLTVDTSSSTAYMELSRLRSDDTAVYYCAREGLGGYWGQGTLVTVSS
VL: DIQLTQSPSFLSASVGDRVTITCKASQNIDYDGYAYLNWYQQKPGKAPKVLIYSVFNLESGVPSRFSGSGSGTEFTLTISSLQPEDFATYYCQQSNEFPYTFGQGTKLEIK
notes: 2B8 HC1-1/1A2 LC2-4
B4: the “Relative binding activity, %” value came out at 70%.

B5: hu117 (antibody, V domains shown)
VH: QVQLVQSGAEVKKPGASVKVSCKASGYTFTDYNMHWVRQAPGQGLEWMGNIYPYNGGTVYNQKFNNRVTLTVDTSSSTAYMELSRLRSDDTAVYYCAREGLGGYWGQGTLVTVSS
VL: DIQLTQSPSSLSASVGDRVTITCKASQNIDYGGYSYMNWYQQKPGKAPKVLIYSVFNLESGVPSRFSGSGSGTDFTLTISSLQPEDFATYYCQQSNEAPYTFGQGTKLEIK
notes: 2B8 HC1-1/3H10 LC2-2
For B5, the “Relative binding activity, %” value was determined as 36%.

B6: hu130 (antibody, V domains shown)
VH: QVQLVQSGAEVKKPGASVKVSCKASGYTFTDYNMHWVRQAPGQGLEWMGNIYPYNGGTVYNQKFNNRVTLTVDTSSSTAYMELRSLRSDDTAVYYCAREGLGGYWGQGTLVTVSS
VL: DIQLTQSPSSLSASVGDRVTITCKASQNIDYGGYSYMNWYQQKPGKAPKVLIYSVFNLESGVPSRFSGSGSGTDFTLTISSLQPEDFATYYCQQSNEAPYTFGQGTKLEIK
notes: 2B8 HC1-2/3H10 LC2-2
For B6, the “Relative binding activity, %” value was 53%.

B7: hu82 (antibody, V domains shown)
VH: QVQLVQSGAEVKKPGASVKVSCKASGYTFIDFNMHWVRQAPGQRLEWMGYIYPYNADVVYNQDFTNRVTLTVDTSSSTAYMELSSLRSEDTAVYYCAREGLGGYWGQGTLVTVSS
VL: DIQLTQSPSFLSASVGDRVTITCKASQNIDYDGYAYLNWYQQKPGKAPKVLIYSVFNLESGVPSRFSGSGSGTEFTLTISSLQPEDFATYYCQQSNEFPYTFGQGTKLEIK
notes: 1F5 HC-5/1A2 LC2-4
Turning to B7, the “Relative binding activity, %” value came out at 97%.

B8: hu121 (antibody, V domains shown)
VH: QVQLVQSGAEVKKPGASVKVSCKASGYTFTDYNMHWVRQAPGQGLEWMGNIYPYNGGTVYNQKFNNRVTLTVDTSSSTAYMELRSLRSDDTAVYYCAREGLGGYWGQGTLVTVSS
VL: DIQLTQSPSFLSASVGDRVTITCKASQNIDYDGYAYLNWYQQKPGKAPKVLIYSVFNLESGVPSRFSGSGSGTEFTLTISSLQPEDFATYYCQQSNEFPYTFGQGTKLEIK
notes: 2B8 HC1-2/1A2 LC2-4
For B8, the “Relative binding activity, %” value is 49%.
